These results are taken from US7098025B1, “Human peroxisome proliferator activated receptor gamma (pparγ) gene regulatory sequences and uses therefor” (Ligand Pharmaceuticals Incorporated, priority 1997, dated 2006).

In assay [1] the test system is human PPARγ1 promoter. The assay is described as follows: pGL3γ1p3000 luciferase reporter cotransfection. It counts as cell-based. The following applies: expression vector cotransfected. An excerpt:
(§1) To assess whether ADD-1 regulates the expression of the hPPARγ3 mRNA, we cotransfected either an expression plasmid coding for ADD-1 together with the pGL3γ3p800 luciferase reporter vector. When Hep G2 cells were cotransfected with the ADD-1 expression vector, the luciferase activity was increased at least 4-fold relative to the basal activity of the hPPARγ3 promoter.
To isolate the PPARγ1 promoter, an 8-kb EcoRI fragment, which hybridized with the oligonucleotide LF-2 (corresponding to the 5′-UTR of γ1), was cloned into pBluescript. […] To test for promoter activity, a SacI/XhoI digestion of this clone containing the 3-kb promoter was inserted in the same sites of pGL3, resulting in the final vector pGL3 γ1p3000. The pSG5-haPPARγ (39) and pMSV-C/EBPβ (10) expression vectors were described elsewhere. Transfections were carried out in 60-mm plates using standard calcium phosphate precipitation techniques (for 3T3-L1, CV-1, and COS cells) (22). Luciferase and […] assays were carried out exactly as described previously (22).
(§2) Site-directed mutagenesis of the E-box in the PPARγ3 promoter was performed by splicing overlapping ends polymerase chain reaction (Ho, et al., Gene 77:51–59 (1989)), using the oligo pairs LF-106/LF-60 and LF-107/LF-68, to generate the plasmid pGL3γ3p800-E-boxmut. […]
On the technique in general: Reporter assays use an easily measured gene product as a stand-in for the process of interest.

In assay [2] the test system is hPPARγ3 promoter. The assay is described as follows: pGL3γ3p800 luciferase reporter cotransfection in Hep G2 cells. It counts as cell-based, human. To be noted: E-box mutated.
From the text: as §1
A 800 bp fragment of the PAC clone 8856 was isolated by PCR using the amplimers LF-60 (binding to the antisense strand in exon A2) and LF-68 (binding sense at position −800 of the PPARγ3 promoter). This PCR fragment was sequenced, inserted into the EcoRV site of pBluescript SK+ (Stratagene, La Jolla, USA), and after SpeI and KpnI restriction subcloned into pGL3 (Promega, Madison, USA), creating the reporter vector pGL3γ3p800.
as §2

The test system of assay [3] is PPARγ mRNA. The assay is described as follows: RNase protection assay of PPARγ mRNA in retrovirally infected 3T3-L1 cells. To be noted: 3T3-L1 preadipocytes and adipocytes; retroviral ectopic expression. It counts as cell-based, mouse. The method, then:
To study the effects of ADD-1 on PPARγ expression in more detail, either an empty retroviral vector pBabe or the same vector encoding for full length ADD-1 or the superactive ADD-1-403 form were introduced into 3T3-L1 cells via retroviral infection. […] Infected cells were then cultured to confluence and consecutively treated with differentiation medium. Total RNA was isolated at confluence (preadipocytes) and at day 6 after confluence (adipocytes) from the cells expressing either the empty pBabe vector or the same vector encoding for ADD-1 or ADD-1-403, a truncated form of ADD-1, equivalent to the proteolytically activated protein, which lacks the membrane anchoring domain. […] The effect of retroviral infection was more pronounced in 3T3-L1 adipocytes relative to preadipocytes.
Control cells received vehicle only.
(§3) The absolute mRNA concentration of the differentially spliced PPARγ variants was measured by RNase protection assay exactly as described (Lemberger et al., J. Biol. Chem. 271:1764–1769 (1995)). The full lenght PPARγ2 coding region plus 33 bp of the 5′ UTR was amplified from human adipose tissue RNA by RT-PCR with the primer pair LF-3/LF-36 and was inserted in the inverted orientation (3′ to 5′ in front of the T7 promoter) into the EcoRI site of the expression vector pSG5 (Stratagene, La Jolla, Calif.). […]

The test system of assay [4] is PPARγ mRNA. The assay is described as follows: RNase protection assay of endogenous PPARγ mRNA in electroporated Hep G2 cells. It counts as cell-based, human. To be noted: Hep G2 cells electroporated with expression vector; 48 hr after transfection.
From the text: To investigate whether ADD-1/SREBP-1 expression was sufficient to regulate the expression of the endogeneous PPARγ3 mRNA, Hep G2 cells were electroporated with vectors expressing either SREBP-1a (Yokoyama et al., Cell 75:187–197 (1993)) or ADD-1 (Tontonoz et al., Mol. Cell. Biol. 13:4753–4759 (1993)). RNA was extracted 48 hr after transfection and analysed by RNase protection assay for the presence of PPARγ mRNA.
as §3, with “Calif.). The resulting plasmid pSG5-hPPARγ2-inv was digested with EcoRV and religated, yielding the vector pSG5-hPPARγ2-RPA, which was used as a template for the synthesis of the anti-sense RNA probe, to measure the relative amounts of PPARγ2 relative to PPARγ1 and 3 mRNA.” for “Calif.).”

Assay [5] deals with human PPARγ2 promoter. In words: pGL3γ2p1000 luciferase reporter cotransfection. It counts as cell-based. The following applies: expression vector cotransfected.
From the text: as §1
A 1-kb fragment of PAC clone 8856 was isolated by PCR using the oligonucleotides LF-35 (binding antisense in the PPARγ2 5′-UTR) and the oligonucleotide LF-58 (binding sense at position −1000 of the PPARγ2), was sequenced, and was inserted into EcoRV site of pBluescript (Stratagene, La Jolla, Calif.). After digestion of plasmid pBS γ2p1000 with SmaI and KpnI, the insert was cloned into the reporter vector pGL3 (Promega), creating the expression vector pGL3γ2p1000.
as §2

B1: ADD-1: basic helix-loop-helix leucine zipper transcription factor, expressed from a cotransfected, electroporated or retroviral vector (protein, UniProt P56720 1-1134, looked up)
Sterol regulatory …: MDELPFGEAALEQALAEVCEMDAALLTDIEDMLQLINNQDSDFPGLFDAPYAGGETGDTGPSSPGASSPESFSSPASLGSSLEAFLGGPKVTPAPLSPPPSAPTAVKMYPSVPPFSPGPGIKEEPVPLTILQPPAPQPSPGTLLPPSFPPPPVQLSPAPVLGYSSLPSGFSGTLPGNTQQTPSSLPLGSTPGISPTPLHTQVQSSAAQQPPPASAAPRMSTVASQIQQVPVVLQPHFIKADSLLLTAVKTDTGATMKTAGINTLAPGTAVQAGPLQTLVSGGTILATVPLVVDTDKLPIHRLAAGGKALGSAQSRGEKRTAHNAIEKRYRSSINDKIVELKDLVVGTEAKLNKSAVLRKAIDYIRFLQHSNQKLKQENLTLRSAHKSKSLKDLVSACGSGGGTDVSMEGMKPEVVETLTPPPSDAGSPSQSSPLSLGSRGSSSGGSDSEPDSPAFEDNQVKAQRLPSHSRGMLDRSRLALCVLVFLCLTCNPLASLFGWGILTPSDASGVHRSSGRSMLEAESRDGSNWTQWLLPPLVWLANGLLVLACLALLFVYGEPVTRPHSGPAVHFWRHRKQADLDLARGDFAQAAQQLWLALQALGRPLPTSNLDLACSLLWNLVRHLLQRLWVGRWLAGQAGGLQRDYRLRKDARASARDAAVVYHKLHQLHAMGKYTGGHLVASNLALSALNLAECAGDAISMATLAEIYVAAALRVKTSLPRALHFLTRFFLSSARQACLAQSGAVPLAMQWLCHPVGHRFFVDGDWAVHGAPQESLYSVAGNPVDPLAQVTRLFCEHLLERALNCIAQPSPGAADGDREFSDALGYLQLLNSCSDAVGAPACSFSVSSSMATTTGTDPVAKWWASLTAVVIHWLRRDEEAAERLYPLVEHIPQVLQETERPLPRAALYSFKAARALLDHRKVESSPASLAICEKASGYLRDSLASTSTASSIDKAMQLLLCDLLLVARTSLWRRQQSAASAQGAHGTSNGPQASALELRGFQHDLSSLRRLAQSFRPAMRRVFLHEATARLMAGASPARTHQLLDRSLRRRAGSSGKGGAAAELEPRPTWREHTEALLLASCYLPPAFLSAPGQRVSMLAEAARTVEKLGDHRLLLDCQQMLLRLGGGTTVTSS
For the molecule B1, the “activity of pGL3γ1p3000 reporter construct” value in assay [1] is listed as “unaffected”. The “stimulation of mutated pGL3γ3p800-E-boxmut reporter vector” value in assay [2] is listed as “unable to stimulate”. In assay [3], the “expression of PPARγ mRNA” value is on record as “induced”. Also, the “PPARγ1 mRNA increase” value in assay [4] is “approximately 3 fold”. In assay [5], the “activity of pGL3γ2p1000 reporter construct” value is “unaffected”.
